Data: US20260132197A1 (NANJING LEGEND BIOTECH, published 2026)

Assays:
[1] = biological target: T1, Human CD47-C33G (human, UniProt Q08722 19-135); experiment: SPR, IgG captured, CD47 in flow; exp 3
T1 construct: also called CD47 mutein with C33G mutation

[2] = biological target: T2, wild type human CD47 (Acro Biosystems, cat. no. CD7-H5227) (human, UniProt Q08722 19-139); experiment: SPR, IgG captured, CD47 in flow; exp 3
T2 construct: Bought protein used as SPR analyte; also called Human CD47 wt; wild-type CD47

[3] = biological target: T3, human CD47 on cells (SHP-77 tumor cells, human red blood cells, CCRF-CEM cells, human CD47 CHO-K1 stable cell … (human, UniProt Q08722 19-323)); experiment: flow cytometry on SHP-77 cells
T3 construct: whole, on cells; also called RBC

[4] = biological target: T1, Human CD47-C33G; experiment: SPR, IgG captured, CD47 in flow; exp 4
[5] = biological target: T2, wild type human CD47 (Acro Biosystems, …); experiment: SPR, IgG captured, CD47 in flow; exp 4
[6] = biological target: T3, human CD47 on cells (SHP-77 tumor …); experiment: cell-based or functional assay
[7] = biological target: T3, human CD47 on cells (SHP-77 tumor …); experiment: flow cytometry on human RBCs;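 note: antibody binding measured by flow cytometry as geometric mean fluorescence intensity over a range of antibody concentrations, with EC50 and maximum taken from a sigmoidal dose-response fit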
[8] = biological target: T1, Human CD47-C33G; experiment: SPR, IgG captured, CD47 in flow; exp 4; remark: listed apart in the source
[9] = biological target: T2, wild type human CD47 (Acro Biosystems, …); experiment: SPR, IgG captured, CD47 in flow; exp 4; remark: listed apart in the source
[10] = biological target: T1, Human CD47-C33G; experiment: SPR, IgG captured, CD47 in flow; exp 1
[11] = biological target: T2, wild type human CD47 (Acro Biosystems, …); experiment: SPR, IgG captured, CD47 in flow; exp 1
[12] = biological target: T1, Human CD47-C33G; experiment: SPR, IgG captured, CD47 in flow; exp 1; remark: listed apart in the source
[13] = biological target: T2, wild type human CD47 (Acro Biosystems, …); experiment: SPR, IgG captured, CD47 in flow; exp 1; remark: listed apart in the source
[14] = biological target: T1, Human CD47-C33G; experiment: SPR, IgG captured, CD47 in flow; exp 3; remark: listed apart in the source
[15] = biological target: T2, wild type human CD47 (Acro Biosystems, …); experiment: SPR, IgG captured, CD47 in flow; exp 3; remark: listed apart in the source
[16] = biological target: T1, Human CD47-C33G; experiment: SPR, IgG captured, CD47 in flow; exp 2
[17] = biological target: T2, wild type human CD47 (Acro Biosystems, …); experiment: SPR, IgG captured, CD47 in flow; exp 2
[18] = biological target: T1, Human CD47-C33G; experiment: SPR, IgG captured, CD47 in flow; exp 2; remark: listed apart in the source
[19] = biological target: T2, wild type human CD47 (Acro Biosystems, …); experiment: SPR, IgG captured, CD47 in flow; exp 2; remark: listed apart in the source

B1: 108VH5.M18 / 108VL1.M5 (antibody, human IgG4 S228P, kappa, V domains shown)
VH: EVQLVQSGAEVKKPGASVKVSCKASGYTFTHHWMHWVRQAPGQGLEWMGMIDASESETRYAQKFQGRVTMTRDTSTSTVYMELSSLRSEDTAVYYCARLGRYYFDYWGQGTLVTVSS
VL: EIVLTQSPATLSLSPGERATLSCRASQSVSSYLAWYQQKPGQAPRLLIYGASNRATGIPARFSGSGSGTDFTLTISSLEPEDFAVYYCGESYGHLYTFGGGTKVEIKR
notes: Full-length IgG4 (S228P), kappa; also called VH5.M18 VL1.M5
Question: Which Kd [1] does the source give for B1 here?
Answer: 1200 nM

Question: And the koff [1]?
Answer: 0.087 s⁻¹

Question: And the kon [1]?
Answer: 75000 M⁻¹ s⁻¹

Question: What about the Kd [2] of the same binder?
Answer: 12 nM

Question: What about the koff [2] of the same binder?
Answer: 0.002 s⁻¹

Question: What about the kon [2] of the same binder?
Answer: 170000 M⁻¹ s⁻¹

B2: 108VH5.M21 / 108VL1.M5 (antibody, human IgG4 S228P, kappa, V domains shown)
VH: EVQLVQSGAEVKKPGASVKVSCKASGYTFTHHWMHWVRQAPGQGLEWMGMIDASDFETRYAQKFQGRVTMTRDTSTSTVYMELSSLRSEDTAVYYCARLGRYYFDYWGQGTLVTVSS
VL: EIVLTQSPATLSLSPGERATLSCRASQSVSSYLAWYQQKPGQAPRLLIYGASNRATGIPARFSGSGSGTDFTLTISSLEPEDFAVYYCGESYGHLYTFGGGTKVEIKR
notes: Full-length IgG4 (S228P), kappa; also called VH5.M21 VL1.M5
Question: Which EC50 [3] does the source give for B2 here?
Answer: 11.9 nM

Question: What about the “Fitted Maximal MFI” value [3] of the same binder?
Answer: 37400 MFI

Question: And the Kd [4]?
Answer: 51 nM

Question: And the koff [4]?
Answer: 0.008 s⁻¹

Question: What about the kon [4] of the same binder?
Answer: 160000 M⁻¹ s⁻¹

Question: What about the Kd [5] of the same binder?
Answer: 6.5 nM

Question: What about the koff [5] of the same binder?
Answer: 0.0032 s⁻¹

Question: And the kon [5]?
Answer: 490000 M⁻¹ s⁻¹

Question: What about the “CCRF-CEM phagocytosis EC50” value [6] of the same binder?
Answer: 0.32 nM

Question: What about the “CCRF-CEM phagocytosis, Phagocytosis (%)” value [6] of the same binder?
Answer: 51.9%

Question: What about the EC50 [7] of the same binder?
Answer: 9.2 nM

Question: And the “Fitted Maximal MFI” value [7]?
Answer: 40800 MFI

B3: 108VH10.Mo / 108VL10.Me (antibody, V domains shown)
VH: EVQLVESGGGLVQPGGSLRLSCAASGFTFSHHWIHWVRQAPGKGLEWVAMIDASDSETRLSDSFKGRFTISADTSKNTAYLQMNSLRAEDTAVYYCSRLGRYYFDYWGQGTLVTVSS
VL: DIQMTQSPSSLSASVGDRVTITCRASQSISSYLNWYQQKPGKAPKLLIYGASSRYSGVPSRFSGSRSGTDFTLTISSLQPEDFATYYCGESYGHLYTFGQGTKVEIK
notes: 4D5-framework series; also called VH10.Mo VL10.Me
Question: Which EC50 [3] does the source give for B3 here?
Answer: 7.9 nM

Question: What about the “Fitted Maximal MFI” value [3] of the same binder?
Answer: 34500 MFI

Question: And the “CCRF-CEM phagocytosis EC50” value [6]?
Answer: 0.18 nM

Question: What about the “CCRF-CEM phagocytosis, Phagocytosis (%)” value [6] of the same binder?
Answer: 56.4%

Question: What about the EC50 [7] of the same binder?
Answer: 3.4 nM

Question: And the “Fitted Maximal MFI” value [7]?
Answer: 19200 MFI

Question: And the Kd [8]?
Answer: 45 nM

Question: And the koff [8]?
Answer: 0.0093 s⁻¹

Question: What about the kon [8] of the same binder?
Answer: 210000 M⁻¹ s⁻¹

Question: And the Kd [9]?
Answer: 5.8 nM

Question: And the koff [9]?
Answer: 0.0032 s⁻¹

Question: What about the kon [9] of the same binder?
Answer: 560000 M⁻¹ s⁻¹

B4: 108VH10.Mp / 108VL10.Me (antibody, V domains shown)
VH: EVQLVESGGGLVQPGGSLRLSCAASGFTFSHHWIHWVRQAPGKGLEWVAMIDASDSETRLVDSFKGRFTISADTSKNTAYLQMNSLRAEDTAVYYCSRLGRYYFDYWGQGTLVTVSS
VL: DIQMTQSPSSLSASVGDRVTITCRASQSISSYLNWYQQKPGKAPKLLIYGASSRYSGVPSRFSGSRSGTDFTLTISSLQPEDFATYYCGESYGHLYTFGQGTKVEIK
notes: 4D5-framework series; constant regions not restated for this series; also called VH10.Mp VL10.Me
Question: Which EC50 [3] does the source give for B4 here?
Answer: 27.5 nM

Question: And the “Fitted Maximal MFI” value [3]?
Answer: 24100 MFI

Question: What about the “CCRF-CEM phagocytosis EC50” value [6] of the same binder?
Answer: 1.2 nM

Question: And the “CCRF-CEM phagocytosis, Phagocytosis (%)” value [6]?
Answer: 47.1%

Question: What about the EC50 [7] of the same binder?
Answer: 23.6 nM

Question: And the “Fitted Maximal MFI” value [7]?
Answer: 16100 MFI

Question: What about the Kd [8] of the same binder?
Answer: 170 nM

Question: And the koff [8]?
Answer: 0.012 s⁻¹

Question: What about the kon [8] of the same binder?
Answer: 72000 M⁻¹ s⁻¹

Question: What about the Kd [9] of the same binder?
Answer: 15 nM

Question: What about the koff [9] of the same binder?
Answer: 0.0039 s⁻¹

Question: And the kon [9]?
Answer: 250000 M⁻¹ s⁻¹

B5: chimeric antibody 108C10A6 (antibody, V domains shown)
VH: QMQLQQSGPQLVRPGASVKISCKTSGYSFTHHWIHWMKQRPGQGLEWIGMIDPSDSETRLSQKFKDKATLTVDASSSTAYMQLNSPTSEDSALYFCARLGRYYFDYWGQGTTLTVSS
VL: NIVMTQSPRSMSMSVGERVTLSCKASENVGTYISWYQQKPDQSPKLLIYGASNRYTGVPDRFTGSGSGTDFTLTISTVQAEDLADYHCGESYGHLYTFGGGTKLEIK
notes: Chimeric antibody with mouse variable domains; captured through human Fc; also called VH / VL
Question: With B5 as the binder, how does the Kd [10] read?
Answer: 1 nM

Question: And the koff [10]?
Answer: 0.00073 s⁻¹

Question: And the kon [10]?
Answer: 720000 M⁻¹ s⁻¹

Question: And the Kd [11]?
Answer: 0.19 nM

Question: What about the koff [11] of the same binder?
Answer: 0.00032 s⁻¹

Question: What about the kon [11] of the same binder?
Answer: 1.6e+06 M⁻¹ s⁻¹

Question: What about the Kd [12] of the same binder?
Answer: 0.92 nM

Question: What about the koff [12] of the same binder?
Answer: 0.00068 s⁻¹

Question: And the kon [12]?
Answer: 740000 M⁻¹ s⁻¹

Question: And the Kd [13]?
Answer: 0.2 nM

Question: What about the koff [13] of the same binder?
Answer: 0.00032 s⁻¹

Question: What about the kon [13] of the same binder?
Answer: 1.5e+06 M⁻¹ s⁻¹

Question: And the Kd [1]?
Answer: 0.95 nM

Question: What about the koff [1] of the same binder?
Answer: 0.00063 s⁻¹

Question: What about the kon [1] of the same binder?
Answer: 660000 M⁻¹ s⁻¹

Question: What about the Kd [2] of the same binder?
Answer: 0.2 nM

Question: And the koff [2]?
Answer: 0.00032 s⁻¹

Question: What about the kon [2] of the same binder?
Answer: 1.6e+06 M⁻¹ s⁻¹

Question: And the Kd [4]?
Answer: 0.67 nM

Question: What about the koff [4] of the same binder?
Answer: 0.00061 s⁻¹

Question: And the kon [4]?
Answer: 920000 M⁻¹ s⁻¹

Question: And the Kd [5]?
Answer: 0.17 nM

Question: And the koff [5]?
Answer: 0.0003 s⁻¹

Question: And the kon [5]?
Answer: 1.8e+06 M⁻¹ s⁻¹

Question: What about the Kd [14] of the same binder?
Answer: 0.95 nM

Question: What about the koff [14] of the same binder?
Answer: 0.00063 s⁻¹

Question: And the kon [14]?
Answer: 660000 M⁻¹ s⁻¹

Question: And the Kd [15]?
Answer: 0.2 nM

Question: And the koff [15]?
Answer: 0.00032 s⁻¹

Question: What about the kon [15] of the same binder?
Answer: 1.6e+06 M⁻¹ s⁻¹

Question: And the Kd [16]?
Answer: 1.3 nM

Question: What about the koff [16] of the same binder?
Answer: 0.00074 s⁻¹

Question: And the kon [16]?
Answer: 590000 M⁻¹ s⁻¹

Question: What about the Kd [17] of the same binder?
Answer: 0.21 nM

Question: And the koff [17]?
Answer: 0.00034 s⁻¹

Question: What about the kon [17] of the same binder?
Answer: 1.6e+06 M⁻¹ s⁻¹

Question: And the Kd [18]?
Answer: 1 nM

Question: And the koff [18]?
Answer: 0.00073 s⁻¹

Question: And the kon [18]?
Answer: 720000 M⁻¹ s⁻¹

Question: What about the Kd [19] of the same binder?
Answer: 0.19 nM

Question: What about the koff [19] of the same binder?
Answer: 0.00032 s⁻¹

Question: And the kon [19]?
Answer: 1.6e+06 M⁻¹ s⁻¹

Question: And the Kd [8]?
Answer: 0.67 nM

Question: And the koff [8]?
Answer: 0.00061 s⁻¹

Question: What about the kon [8] of the same binder?
Answer: 920000 M⁻¹ s⁻¹

Question: And the Kd [9]?
Answer: 0.17 nM

Question: And the koff [9]?
Answer: 0.0003 s⁻¹

Question: And the kon [9]?
Answer: 1.8e+06 M⁻¹ s⁻¹
